From publication PMC4887326 (2016)

Experiments:
[1] = biological target: YfiB^L43P/F57A (residues 34–168) (P. aeruginosa, UniProt Q9I4L6 34-168, L43P | F57A); assay: ITC
[2] = biological target: YfiB^L43P (residues 34–168), purified alone (P. aeruginosa, UniProt Q9I4L6 34-168, L43P); assay: ITC

B1: YfiR (residues 35–190), purified alone (domain or fragment)
chain: DDARTSIEQRSNAVSQVLLGIFSYVRWPKEPAVLQLCVVGPTEYADGLLRGMVQANGRRVHAERRAVDNPDLGTLCNVIYLGVVDERERQQVFRSLAGHPVLSISERGTECSVGSMFCLNVGGPRITFEANLDSIARSGVRVHPSVLKLARRQATP
- Ka [1]: 1.87e+06 M⁻¹
- Ka [2]: 7.12e+06 M⁻¹
